In series [1] the test system is Nsp1 N127 (6His-Nsp1(N127)) (SARS-CoV-2). The series is described as follows: MST. The conditions noted are these: assay buffer not stated ([…].
Series [2] concerns Nsp1 full-length (6His-Nsp1) (SARS-CoV-2). The series is described as follows: MST. The conditions noted are these: assay buffer not stated ([…].

2 substances from publication doi:10.1101/2025.08.04.668557 can be followed below.

CoV2 5' UTR 1-50 RNA: the dissociation constant (Kd) in series [1] stood at 77.8 µM; in series [2], 6.3 µM.

In the case of TIAR 5' UTR 1-50 RNA, the Kd in series [1] was found to be 112 µM; in series [2], 4.23 µM.
